Data taken from patent US20200339702A1 (ULTRAHUMAN THIRTEEN, published 2020).

Target: T1, human insulin (human, UniProt P01308 25-54; P01308 90-110, limits assumed)
T1 construct: Off-target protein in the development risk (polyreactivity) ELISA
Experiment: development risk ELISA on insulin

T1 sequence (P01308 25-54 limits assumed, chain 1 of 2): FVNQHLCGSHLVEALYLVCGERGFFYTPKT
T1 sequence (P01308 90-110 limits assumed, chain 2 of 2): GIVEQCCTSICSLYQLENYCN

B1: 15G11-DI11 IgG1 (antibody, V domains shown)
VH: QVQLVESGGGLVKPGGSLRLSCAASGFTFSDYGMSWVRQAPGKGLEWVSTISDSGSYTYYPDSVKGRFTISRDNAKNSLYLQMNSLRAEDTAVYYCARELGDYDGFDYWGQGTLVTVSS
VL: DIQMTQSPSSLSASVGDRVTITCRASQEASSYLSWYQQKPGKAPKLLAYAASSLDSGVPSRFSGSGSGTDFTLTISSLQPEDFATYYCLQYDSSPYTFGGGTKVEIK
notes: Human IgG1 format, human Ckappa
  binding score: < 10
